# Reference: US20250288643A1 (FBD BIOLOGICS, published 2025)
# Like-named read-outs stand apart in the source and are kept apart here.
# How the values were obtained:
# human CD47 (hCD47) [1] = molecular target: T1, human CD47 (hCD47) (human, UniProt Q08722 19-139, limits assumed); experiment: hCD47 binding OD over expression OD
# Experimental: (§1) 30 μl of the collected supernatant was added to the ELISA plates and incubated at 25° C. for 1 hour. After the incubation, goat anti-c-Myc HRP with a dilution ratio of 1:10000 was added to the plate, and TMB was added for color development. The absorbance value at 450 nm was measured using a Varioskan™ LUX plate reader.
# human CD47 (hCD47) [2] = molecular target: T1, human CD47 (hCD47); experiment: ELISA, coated hCD47 ECD Fc, supernatant, anti-c-Myc HRP
# Experimental: as §1
# mouse CD47 = molecular target: T2, mouse CD47 (mouse, UniProt Q61735 19-140, limits assumed); experiment: ELISA, coated mouse CD47 ECD Fc, supernatant, anti-c-Myc HRP
# T2 sequence (looked up): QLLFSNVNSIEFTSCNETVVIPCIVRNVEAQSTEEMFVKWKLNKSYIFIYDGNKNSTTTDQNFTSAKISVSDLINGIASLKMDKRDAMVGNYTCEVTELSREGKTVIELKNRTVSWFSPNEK
# Experimental: 100 μl of the collected supernatant was added to the ELISA plates and incubated at 25° C. for 1 hour. After the incubation, goat anti-c-Myc HRP with a dilution ratio of 1:10000 was added to the plate, and TMB was added for color development. The absorbance value at 450 nm was measured using a Varioskan™ LUX plate reader.
# human CD47 (hCD47) [3] = molecular target: T1, human CD47 (hCD47); experiment: blocking ELISA, coated hCD47 ECD Fc, supernatant + biotin-SIRPα ECD His
# Experimental: (§2) 150 μl of the collected supernatant and 20 μl biotin-labeled SIRPα ECD His protein (final concentration: 2.5 μg/ml) were added to the ELISA plates and incubated at 25° C. for 1 hour. After the incubation, avidin HRP (BioLegend, Cat #: 79004) with a dilution ratio of 1:1000 was added to the plate, and TMB was added for color development. The absorbance value at 450 nm was measured using a Varioskan™ LUX plate reader.
# human CD47 (hCD47) [4] = molecular target: T1, human CD47 (hCD47); experiment: hCD47 binding OD over expression OD; remark: listed apart in the source
# Experimental: as §1
# human CD47 (hCD47) [5] = molecular target: T1, human CD47 (hCD47); experiment: ELISA, coated hCD47 ECD Fc, supernatant, anti-c-Myc HRP; remark: listed apart in the source
# Experimental: as §1
# human CD47 (hCD47) [6] = molecular target: T1, human CD47 (hCD47); experiment: blocking ELISA, coated hCD47 ECD Fc, supernatant + biotin-SIRPα ECD His; remark: listed apart in the source
# Experimental: as §2
# T1 sequence (Q08722 19-139 limits assumed): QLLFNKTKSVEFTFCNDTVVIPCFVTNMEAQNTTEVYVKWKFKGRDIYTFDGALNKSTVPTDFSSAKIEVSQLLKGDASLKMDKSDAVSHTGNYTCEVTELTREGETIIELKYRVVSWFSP
Binder,hCD47 binding (B/E) (human CD47 (hCD47) [1]),hCD47 binding (OD) (human CD47 (hCD47) [2]),mCD47 binding (OD) (mouse CD47),Blocking (OD) (human CD47 (hCD47) [3]),Blocking ability (%) (human CD47 (hCD47) [3]),hCD47 binding (B/E) (human CD47 (hCD47) [4]),hCD47 binding (OD) (human CD47 (hCD47) [5]),Blocking (OD) (human CD47 (hCD47) [6]),Blocking ability (%) (human CD47 (hCD47) [6])
"4RP13-3-11A (designed binder, tested as bacterial supernatant; also called S-2; hSIRPα-mt3 (IgV domain)) hSIRPα IgV domain mutant: EEELQVIQPDKSVSVAAGESAILHCTVTSLWPVGPIQWFRGAGPARELIYNQKAWPFPRVTTVSESTKRENMDFSISISNITPADAGTYYCVKFRKGSPDTEFKSGAGTELSVRAKPS",1.53,1.67,0.348,0.319,93.3,–,–,–,–
"4RP13-4-5C (designed binder, tested as bacterial supernatant; also called S-21; hSIRPα-mt5 (IgV domain)) hSIRPα IgV domain mutant: EEELQVIQPDKSVSVAAGESAILNCTVTSLIPVGPIQWFRGAGPARELIYNQKHQTFPRVTTVSEQTKRENRDFSISISNITPADAGTYYCVKFRKGSPDTEFKSGAGTELSVRAKPS",1.65,1.86,–,0.21,96.3,–,–,–,–
"4RP6-1-10A (designed binder, tested as bacterial supernatant; also called S-16; hSIRPα-mt13 (IgV domain)) hSIRPα IgV domain mutant: EEELQVIQPDKSVSVAAGESAILHCTVTSLLPVGPIQWFRGAGPARELIYNQKDFLFPRVTTVSESTKRENRDFSISISNITPADAGTYYCVKFRKGSPDTEFKSGAGTELSVRAKPS",2.89,1.87,0.41,0.45,80.1,2.89,1.87,0.45,80.1
"4RP13-1-7A (designed binder, tested as bacterial supernatant; also called S-19; hSIRPα-mt8 (IgV domain)) hSIRPα IgV domain mutant: EEELQVIQPDKSVSVAAGESAILHCTVTSLKPVGPIQWFRGAGPARELIYNQKRDTFPRVTTVSESTKRENRDFSISISNITPADAGTYYCVKFRKGSPDTEFKSGAGTELSVRAKPS",2.44,1.9,0.293,0.215,95.8,–,–,–,–
"2R-1-10B (designed binder, tested as bacterial supernatant; also called hSIRPα-mt6 (IgV domain)) hSIRPα IgV domain mutant: EEELQVIQPDKSVSVAAGESAILHCTVTSLIPVGPIQWFRGAGPARELIYNQKNLIFPRVTTVSESGKRENMDFSISISNITPADAGTYYCVKFRKGSPDTEFKSGAGTELSVRAKPS",–,–,–,–,–,0.46,0.51,1.37,27.2
"4RP13-5-6G (designed binder, tested as bacterial supernatant; also called hSIRPα-mt15 (IgV domain)) hSIRPα IgV domain mutant: EEELQVIQPDKSVSVAAGESAILRCTVTSLTPVGPIQWFRGAGPARELIYNQKAKQFPRVTTVSESTKRENMIFSISISNITPADAGTYYCVKFRKGSPDTEFKSGAGTELSVRAKPS",–,–,–,–,–,1.01,1.65,1.11,46.3
"4RP13-3-10B (designed binder, tested as bacterial supernatant; also called S-26; hSIRPα-mt12 (IgV domain)) hSIRPα IgV domain mutant: EEELQVIQPDKSVSVAAGESAILHCTVTSLYPVGPIQWFRGAGPARELIYNQKGRRFPRVTTVSESTKRANMDFSISISNITPADAGTYYCVKFRKGSPDTEFKSGAGTELSVRAKPS",1.33,1.65,–,0.299,94.7,–,–,–,–
"4RP13-1-2G (designed binder, tested as bacterial supernatant; also called S-5; hSIRPα-mt4 (IgV domain)) hSIRPα IgV domain mutant: EEELQVIQPDKSVSVAAGESAILRCTVTSLWPVGPIQWFRGAGPARELIYNQKAFIFPRVTTVSESTKRGNMDFSISISNITPADAGTYYCVKFRKGSPDTEFKSGAGTELSVRAKPS",2.27,1.94,0.412,0.194,96.9,–,–,–,–
"2R-1-7B (designed binder, tested as bacterial supernatant; also called hSIRPα-mt7 (IgV domain)) hSIRPα IgV domain mutant: EEELQVIQPDKSVSVAAGESAILHCIVTSLIPVGPIQWFRGAGPARELIYNQKILTFPRVTTVSESTKRENYDFSISISNITPADAGTYYCVKFRKGSPDTEFKSGAGTELSVRAKPS",–,–,–,–,–,0.78,0.687,1.43,23.3
"2R-1-4B (designed binder, tested as bacterial supernatant; also called hSIRPα-mt14 (IgV domain)) hSIRPα IgV domain mutant: EEELQVIQPDKSVSVAAGESAILHCTVTSLAPVGPIQWFRGAGPARELIYNQKLDSFPRVTTVSESTKRESMDFSISISNITPADAGTYYCVKFRKGSPDTEFKSGAGTELSVRAKPS",–,–,–,–,–,0.77,0.946,1.36,27.9
"4RP13-3-7B (designed binder, tested as bacterial supernatant; also called S-28; hSIRPα-mt10 (IgV domain)) hSIRPα IgV domain mutant: EEELQVIQPDKSVSVAAGESAILTCTVTSLYPVGPIQWFRGAGPARELIYNQKRQTFPRVTTVSESTKRFNMDFSISISNITPADAGTYYCVKFRKGSPDTEFKSGAGTELSVRAKPS",1.25,1.49,–,0.332,92.4,1.25,1.49,0.332,92.4
"4RP13-3-4D (designed binder, tested as bacterial supernatant; also called S-11; hSIRPα-mt11 (IgV domain)) hSIRPα IgV domain mutant: EEELQVIQPDKSVSVAAGESAILHCTVTSLLPVGPIQWFRGAGPARELIYNQKSKVFPRVTTVSESTKRRNMDFSISISNITPADAGTYYCVKFRKGSPDTEFKSGAGTELSVRAKPS",1.7,1.79,–,0.229,99.8,–,–,–,–
"2RP-1-3E (designed binder, tested as bacterial supernatant; also called S-7; hSIRPα-mt9 (IgV domain)) hSIRPα IgV domain mutant: EEELQVIQPDKSVSVAAGESAILTCTVTSLWPVGPIQWFRGAGPARELIYNQKGQNFPRVTTVSESTKRFNMDFSISISNITPADAGTYYCVKFRKGSPDTEFKSGAGTELSVRAKPS",1.61,1.72,–,0.131,99.9,–,–,–,–
